Experimental data reported in patent publication US20220226463A1 (NATIONAL CHENG KUNG UNIVERSITY, published 2022).

Molecular target: T1, TRAF6 (UniProt Q9Y4K3 1-522)
T1 sequence: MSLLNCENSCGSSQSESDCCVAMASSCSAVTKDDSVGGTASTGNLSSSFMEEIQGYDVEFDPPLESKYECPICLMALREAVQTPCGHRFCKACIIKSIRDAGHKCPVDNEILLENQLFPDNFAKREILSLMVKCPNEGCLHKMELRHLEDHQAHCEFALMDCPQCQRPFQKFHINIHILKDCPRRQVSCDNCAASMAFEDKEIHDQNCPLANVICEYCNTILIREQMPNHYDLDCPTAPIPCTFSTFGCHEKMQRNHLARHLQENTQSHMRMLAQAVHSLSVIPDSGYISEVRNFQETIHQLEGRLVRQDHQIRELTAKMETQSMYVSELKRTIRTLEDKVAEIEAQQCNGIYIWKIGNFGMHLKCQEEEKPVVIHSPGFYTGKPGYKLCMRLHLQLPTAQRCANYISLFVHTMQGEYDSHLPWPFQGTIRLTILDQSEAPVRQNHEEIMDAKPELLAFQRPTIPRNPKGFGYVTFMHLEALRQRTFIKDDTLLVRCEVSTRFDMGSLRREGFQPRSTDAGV
Experiment: co-immunoprecipitation and western blot, HEK293T cells (FIG. 3A)

B1: wild-type NS1 (NS1-Myc/His), nonstructural protein 1 of influenza virus strain A/PR/8 (PR8), C-terminal Myc-His tag (other)
chain: MDPNTVSSFQVDCFLWHVRKRVADQELGDAPFLDRLRRDQKSLRGRGSTLGLDIETATRAGKQIVERILKEESDEALKMTMASVPASRYLTDMTLEEMSRDWSMLIPKQKVAGPLCIRMDQAIMDKNIILKANFSVIFDRLETLILLRAFTEEGAIVGEISPLPSLPGHTAEDVKNAVGVLIGGLEWNDNTVRVSETLQRFAWRSSNENGRPPLTPKQKREMAGTIRSEV
- binding result: no binding
